First the molecules themselves.
B1: library; numbered along this chain (parent)
chain: MNIQIGELAKRTACPVVTIRFYEQEGLLPPPGRSRGNFRLYGEEHVERLQFIRHCRSLDMPLSDVRTLLSYRKRPDQDCGEVNMLLDEHIRQVESRIGALLELKHHLVELREACSGARPAQSCGILQGLSDCVCDTRGTTAHPSD

Data set [1] covers variants of B1. The data set is described as follows: sfGFP reporter fluorescence (15 h) (µM FITC); higher = higher leak. As to conditions: library round: Round 0; ligand: none. As for the experimental part: (§1)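 Cell-free (BL21 Star DE3 extract, PANOx-SP) biosensing: 1 µL Echo-assembled reactions with linear PbrR variant templates (5 nM) and pPbrR-sfGFP reporter, with 1 µM Pb (lead chloride), 30 µM Zn (zinc acetate) or no ligand; endpoint sfGFP fluorescence after 15 h at 30 °C, calibrated as µM FITC. Round 0 library (alanine scan, site saturation, combinatorial) of PbrR from Cupriavidus metallidurans; 2 biological replicates.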

The variants in data set [2] derive from B1. The data set is described as follows: sfGFP reporter fluorescence (15 h) (µM FITC); higher = stronger transcriptional activation. As to conditions: library round: Round 0. On the procedure:
as §1

± gives the standard deviation of the averaged measurements.

Take MNIQIGELAKRTACPVVTIRFYEQEGLIPPPGRSRGNFRLYGEEHVERLQFIRHCRSLDMPLSDVRTLLSYRKRPDQDCGEVNMLLDEHIRQVESRIGALLELKHHLVELREACSGARPAQSCGILQGLSDCVCDTRGTTAHPSD [L28I]: the sfGFP reporter fluorescence is 0.0588 ± 0.00078 in data set [1], 0.0841 ± 0.0013 in data set [2] (ligand: 1 µM Pb) and 0.908 ± 0.066 in data set [2] (ligand: 30 µM Zn).

On to MNIQIGELAKRTACPVVTIRFYEQEGLLPPPGRSRGNFRLYGEEHVERLQFIRHCRSLDMPLSDVRTLLSYRKRPDQDCGEVNMLLDEHIRQVESRIGALLELKHHLVELREACSGARPAQSCGIPQGLSDCVCDTRGTTAHPSD [L126P], for which the figures for the sfGFP reporter fluorescence in data set [1], in data set [2] (ligand: 1 µM Pb) and in data set [2] (ligand: 30 µM Zn) were 0.05552 ± 0.00026, 0.0555 ± 0.0023 and 0.05113 ± 0.00026, respectively.

Take MNIQIGELAKRTACEVVTIRFYEQEGLLPPPGRSRGNFRLYGEEHVERLQFIRHCRSLDMPLSDVRTLLSYRKRPDQDCGEVNMLLDEHIRQVESRIGALLELKHHLVELREACSGARPAQSCGILQGLSDCVCDTRGTTAHPSD [P15E]: the results for the sfGFP reporter fluorescence in data set [1], in data set [2] (ligand: 1 µM Pb) and in data set [2] (ligand: 30 µM Zn) were 0.0718 ± 0.001, 0.088 ± 0.0021 and 0.4297 ± 0.0023, respectively.

In the case of MNIQIGELAKRTACPVVTIRFYEQEGLLPPPGRSRGNFRLYGEEHVERLQFIRHCRSLDMPLSDVRTLLSYRKRPDQDCGEVNMLLDEHIRQVLSRIGALLELKHHLVELREACSGARPAQSCGILQGLSDCVCDTRGTTAHPSD [E94L], the values for the sfGFP reporter fluorescence in data set [1], in data set [2] (ligand: 1 µM Pb) and in data set [2] (ligand: 30 µM Zn) were 0.0579 ± 0.0021, 0.0698 ± 0.0075 and 0.583 ± 0.006, respectively.

As to MNIQIGELAKRTACPVVTIRFYEQEGLLPPPGRSRGNFRLYGEEHVERLQFIRHCRSLDMPLSDVRTLLSYRKRPDQDCGEVNMLLDEHIRQVISRIGALLELKHHLVELREACSGARPAQSCGILQGLSDCVCDTRGTTAHPSD [E94I], the figures for the sfGFP reporter fluorescence in data set [1], in data set [2] (ligand: 1 µM Pb) and in data set [2] (ligand: 30 µM Zn) were 0.0555 ± 0.0034, 0.08008 ± 0.00026 and 0.714 ± 0.013, respectively.

On to MNIQIGELAKRTACPVVTIRFYEQEGLLPPPGRSRGNFRLYGEEHVERLQFIRHCRSLDMPLSDVRTALSYRKRPDQDCGEVNMLLDEHIRQVESRIGALLELKHHLVELREACSGARPAQSCGILQGLSDCVCDTRGTTAHPSD [L68A], for which the sfGFP reporter fluorescence in data set [1] was 0.0623 ± 0.001; in data set [2] (ligand: 1 µM Pb) it was 0.0619 ± 0.0047; in data set [2] (ligand: 30 µM Zn) it was 0.156 ± 0.0049.

Turning to MNIQIGELAKRTACPVVTIRFYEQEGLLPPPGRSRGNFRLYGDEHVERLQFIRHCRSLDMPLSDVRTLLSYRKRPDQDCGEVNMLLDEHIRQVESRIGALLELKHHLVELREACSGARPAQSCGILQGLSDCVCDTRGTTAHPSD [E43D], the results for the sfGFP reporter fluorescence in data set [1], in data set [2] (ligand: 1 µM Pb) and in data set [2] (ligand: 30 µM Zn) were 0.05754 ± 0.00052, 0.072 ± 0.012 and 0.744 ± 0.036, respectively.

In the case of MNIQIGELAKRTACPVVTIRFYEQEGLLPPPGRSRGNFRLYGEEHVERLQFIRHCRSLDMPLSDVRTLLSYRKRPDQDCGEVNMLLDEHIRQVESRIGALLELKHHLVELREACSGARPAQSCGILQGLSDCVCRTRGTTAHPSD [D135R], the results for the sfGFP reporter fluorescence in data set [1], in data set [2] (ligand: 1 µM Pb) and in data set [2] (ligand: 30 µM Zn) were 0.06267 ± 0.00052, 0.098 ± 0.0086 and 0.909 ± 0.043, respectively.

Regarding MNIQIGELAKRTACPVVTIRFYEQEGLLPPPGRSRGNFRLYGEEHVERLQFIRHCRSLDMPLSDVRTLLSYRKRPDQDCGEVNMLLDEHYRQVESRIGALLELKHHLVELREACSGARPAQSCGILQGLSDCVCDTRGTTAHPSD [I90Y], the results for the sfGFP reporter fluorescence in data set [1], in data set [2] (ligand: 1 µM Pb) and in data set [2] (ligand: 30 µM Zn) were 0.0608 ± 0.0026, 0.108 ± 0.0023 and 0.9855 ± 0.0052, respectively.

On to MNIQIGELAKRTACPVVTIRFYEQEGLLPPPGRSRGNFRLYGEEHVERLQFIRHCRSLDMRLSDVRTLLSYRKRPDQDCGEVNMLLDEHIRQVESRIGALLELKHHLVELREACSGARPAQSCGILQGLSDCVCDTRGTTAHPSD [P61R], for which the sfGFP reporter fluorescence amounted to 0.0715 ± 0.0031 in data set [1], 0.1231 ± 0.00052 in data set [2] (ligand: 1 µM Pb) and 1.42 ± 0.021 in data set [2] (ligand: 30 µM Zn).

For MNIQIGELAKRTACPVVTIRFYEQEGLLPPPGRSRGNFRLYGEEHVERLQFIRHCRSLDMPLSDVRTLLSYRKRPDQDCGEVNMLLDEHIRQVESRIGALLELKHHLVELREACSGARPAQSCGILQGLSDCVCDTRGTAAHPSD [T140A], the sfGFP reporter fluorescence worked out at 0.0614 ± 0.0013 in data set [1], 0.0726 ± 0.0015 in data set [2] (ligand: 1 µM Pb) and 0.5 ± 0.039 in data set [2] (ligand: 30 µM Zn).

Turning to MNIQIGELAKRTACPVVTIRFYEQEGLLPPPGRSRGNFRLYGEEHVERLQFIRHCRSLDMPLSDVRTLLSYRKRPDQDCGEVNMLLDEHIRQVESRIGALLELKHHLVELRKACSGARPAQSCGILQGLSDCVCDTRGTTAHPSD [E112K], the sfGFP reporter fluorescence in data set [1] amounted to 0.0706 ± 0.00078; in data set [2] (ligand: 1 µM Pb), 0.1164 ± 0.00078; in data set [2] (ligand: 30 µM Zn) it was 2.4 ± 0.25.

As for MNIQIGELAKRTACPVVTIRFYEQEGLLPPPGRSRGNFRLYGEEHVERLQFIRHCRSLDMPLSDVRTLLSYRKRPDQDCGEVNMLLDEHIRQVESRIGALLELKHHLVELREACSGARPAQSCGILQGRSDCVCDTRGTTAHPSD [L129R], the sfGFP reporter fluorescence is 0.0588 ± 0.00078 in data set [1], 0.05901 ± 0.00052 in data set [2] (ligand: 1 µM Pb) and 0.0557 in data set [2] (ligand: 30 µM Zn).

Regarding MNIQIGELAKRTACPVVTIRFYEQEGLLPPPGRSRGNFRLYGEEHVERLQFIRHCRSLDMNLSDVRTLLSYRKRPDQDCGEVNMLLDEHIRQVESRIGALLELKHHLVELREACSGARPAQSCGILQMLSDCVCDTRGTTAHPSD [P61N G128M], the sfGFP reporter fluorescence in data set [1] amounted to 0.481 ± 0.039; in data set [2] (ligand: 1 µM Pb) it was 1.59 ± 0.34; in data set [2] (ligand: 30 µM Zn) it was 4.72 ± 0.4.

(Values after the supplement of paper PMC12783771.)
